Assay results as given in paper PMC10501992, “How Pol α-primase is targeted to replisomes to prime eukaryotic DNA replication” (Molecular Cell, 2023).

How the values were obtained:
[1] = target: T1, Tof1 (budding yeast) (S. cerevisiae, UniProt P53840 1-1238); assay: cryo-EM structure; budding yeast replisome: 150 nM CMG on fork DNA (39 nt 3′ flap, 60 nt 5′ flap) with 1.5-fold molar excess of Tof1-Csm3, Mrc1 and Pol α-primase; 25 mM HEPES-NaOH pH 7.6, 150 mM NaOAc, 0.5 mM TCEP, 500 μM AMP-PNP, 10 mM Mg(OAc)2, on ice; 10-30% glycerol gradient with glutaraldehyde and BS3 cross-linkers; conditions: both partners purified
T1 construct: Tof1, S. cerevisiae; stood in the assay as a subunit of m13; source: subunit of Tof1-Csm3 from S. cerevisiae strain yAE48, purified as described previously
T1 sequence: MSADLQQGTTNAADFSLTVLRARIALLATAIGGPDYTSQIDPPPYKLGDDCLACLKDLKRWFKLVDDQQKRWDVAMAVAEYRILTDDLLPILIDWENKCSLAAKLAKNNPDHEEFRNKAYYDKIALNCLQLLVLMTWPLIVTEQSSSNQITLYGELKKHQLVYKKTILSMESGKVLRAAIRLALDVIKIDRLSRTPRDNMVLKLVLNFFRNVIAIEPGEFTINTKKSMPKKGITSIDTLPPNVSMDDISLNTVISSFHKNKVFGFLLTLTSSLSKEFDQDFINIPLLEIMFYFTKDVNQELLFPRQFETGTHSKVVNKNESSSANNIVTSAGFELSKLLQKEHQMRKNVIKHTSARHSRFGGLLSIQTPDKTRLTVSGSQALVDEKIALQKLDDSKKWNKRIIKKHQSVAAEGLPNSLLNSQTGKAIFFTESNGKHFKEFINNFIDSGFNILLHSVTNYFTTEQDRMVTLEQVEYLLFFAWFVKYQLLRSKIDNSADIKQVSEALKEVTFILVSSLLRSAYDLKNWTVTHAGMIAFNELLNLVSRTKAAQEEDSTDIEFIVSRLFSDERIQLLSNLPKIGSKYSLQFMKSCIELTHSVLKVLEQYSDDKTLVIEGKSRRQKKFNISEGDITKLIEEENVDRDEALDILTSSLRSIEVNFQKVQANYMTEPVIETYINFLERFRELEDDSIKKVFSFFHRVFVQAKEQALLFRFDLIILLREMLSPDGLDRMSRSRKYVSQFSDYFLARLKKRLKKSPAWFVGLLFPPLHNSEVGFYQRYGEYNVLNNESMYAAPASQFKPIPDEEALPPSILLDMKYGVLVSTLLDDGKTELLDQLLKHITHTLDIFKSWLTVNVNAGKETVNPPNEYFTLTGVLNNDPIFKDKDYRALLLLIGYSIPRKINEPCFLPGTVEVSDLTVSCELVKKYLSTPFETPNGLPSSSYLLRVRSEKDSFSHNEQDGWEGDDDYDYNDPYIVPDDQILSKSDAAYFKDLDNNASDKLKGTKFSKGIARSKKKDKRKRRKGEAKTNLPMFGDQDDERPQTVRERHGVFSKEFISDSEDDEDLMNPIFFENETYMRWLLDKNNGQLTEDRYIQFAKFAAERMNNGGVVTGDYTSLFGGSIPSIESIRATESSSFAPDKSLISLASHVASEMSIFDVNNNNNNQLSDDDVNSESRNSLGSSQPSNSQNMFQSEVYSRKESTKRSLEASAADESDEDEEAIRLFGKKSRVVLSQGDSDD

[2] = target: T2, budding yeast CMG (Cdc45-Mcm2-7-GINS) replicative helicase (S. cerevisiae, UniProt Q08032 1-650; P29469 1-868; P24279 1-971; P30665 1-933; P29496 1-775; P53091 …); assay: as above; conditions: both partners purified
T2 construct: Cdc45, S. cerevisiae; Mcm2, S. cerevisiae; Mcm3, S. cerevisiae; Mcm4, S. cerevisiae (named only within Mcm2-7); Mcm5, S. cerevisiae; Mcm6, S. cerevisiae (named only within Mcm2-7); Mcm7, S. cerevisiae (named only within Mcm2-7); Psf1, subunit of GINS, S. cerevisiae; Psf2, subunit of GINS, S. cerevisiae; Sld5, subunit of GINS, S. cerevisiae; source: S. cerevisiae strain yJY197, expressed and …

B1: Mrc1 (budding yeast) (natural protein, S. cerevisiae)
chain: MDDALHALSSLTAKKRTTTYKKVAVPILDENDNTNGNGPNDIDNPPELTGNGFLFANATLNRVKNRLEGKKAPEQNHNNGKDRSENSLPTQLISNLYDGGEELEKSEVKDNSYSEKNVSSSFTQTQRIPVSIQQDKVFNVPIHSVNDGKPTQLIKEDGLVNETSQALKTPLTTGRPGATQRIDSSGATSQTQPIKSIEPQSQIITTSSNHSNALSPKIPIIPTELIGTSPLFQSIQNRGPDTQMDVPPQTAHDEDKTQAIGIPQATHQEQKTQIDTVAQTLQDEVPHTLKIREIQSELASEDSKREKARNVEYKKPQKPIPTKKFFSKESFLADFDDSSSNEDDDIKLENAHPKPVQNDDELHENKSVELNLTDETRINEKRVPLLSSYANNLKREIDSSKCITLDLDSDSDEYGDDDMDSIKLSKDESVLPISQLSKATILNLKARLSKQNQKLSQRPNKSKDPKVDHNVLLNTLRKASRKQILDHQKEVIETKGLKLEDMAKEKEIVENLLEQEILRNKRIRQKEKRREKLEENDFQLNAHDSGSDSGSESSGFALSGNEIADYESSGSENDNRRESDSEKEDDEIILKQKKSHHVKHIINESDSDTEVEAKPKEKADESLPKRIAINLGHYGDNIGEDTDKFQETNVLDTQNIEEVMAERNTIENEVKDDVYVNEEADEAIRRQLIDKEKLQLKQKEKEHEAKIKELKKRGVTNFFEMEAEESEDEWHGIGGADGEGSDDYDSDLEKMIDDYSKNNFNPHEIREMLAAENKEMDIKMINKILYDIKNGGFRNKRAKNSLELELSDDDEDDVLQQYRLKRRELMRKRRLEIGDDAKLVKNPKSSAFFESMVEDIIEYKNPFGAEEEYNLDITSTATDLDTQDNSINVGDNTGNNEQKPVDQKNKKVIISEDFVQKSLSFLKSNNYEDFETDKELSRIQHGNDEAIEDLYTLKQNSSIKSFTNSQTDSTTSKTVNTIIDLEKRPEDEDEVENGDTSLVGVFKHPSIIKSFASRTDINDKFKEGNKTVKILKSYKTVGSSKASITYMGKTRKLIAPKRKTEGSHRYHHDHHNKKMKMKTKTKSNKLFESGQDSFDN
notes: Mrc1, S. cerevisiae; several small sections modelled (S339-K323 as printed, D468-Q483, N842-E858); source: S. cerevisiae strain yJY32, expressed and purified as described previously
- binding result [1]: binds
- binding result [2]: binds
